According to patent US7514534 (DYAX, dated 2009):

T1: MMP-26 catalytic domain, tagged with hexa-histidine (human, UniProt Q9NRE1 90-261)
T1 construct: the forward primer adds Met-Ala before it; also called MMP-26 target protein; Matrilysin-2; not shown: Also any N-terminal residues added by the forward primer (Met-Ala according to our card; the primers were not visible to me)
T1 sequence: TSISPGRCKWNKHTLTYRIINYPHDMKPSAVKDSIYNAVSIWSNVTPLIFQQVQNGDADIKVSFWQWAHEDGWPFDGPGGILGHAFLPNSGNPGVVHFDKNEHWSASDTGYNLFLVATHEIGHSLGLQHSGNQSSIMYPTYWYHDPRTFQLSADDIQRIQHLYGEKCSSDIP


How the values were obtained:
[1] = target: T2, MMP-9 (UniProt P14780 107-707, limits assumed); assay: cross-reactivity ELISA on coated MMP
T2 construct: also called gelatinase
Procedure: (§1) Twenty-one of the reformatted MMP-26 antibodies were tested for MMP cross reactivity by ELISA analysis. MMP-3, MMP-7, MMP-9, and MMP-12 were coated onto Immulon 2 HB 96-well plates at a concentration of 1 μg/ml for 1 hour at 37° C. The plates were blocked with PBS-T containing 5% (w/v) nonfat dry milk for thirty minutes and subsequently washed with PBS-T. Each antibody was tested for reactivity to all of the above mentioned MMPs at a concentration of 2 μg/ml with an incubation time of 1 hour. Bound antibody was detected with an HRP-conjugated anti-human secondary antibody (Table 3, NT=not tested.).

[2] = target: T3, MMP-3 (UniProt P08254 100-477, limits assumed); assay: cross-reactivity ELISA on coated MMP
T3 construct: also called stromelysin-1
Procedure: as §1

[3] = target: T1, MMP-26 catalytic domain, tagged with …; assay: bead-based ELISA, MMP-26 on nickel beads, IgG4 culture supernatant
Procedure: Reformatted and expressed full-length MMP-26 binding IgG4 antibodies were tested for specificity in a bead-based ELISA. Approximately 1.25 μg of MMP-26 protein was bound to nickel-coated magnetic beads (Novagen) which had been pre-blocked with phosphate buffered saline containing 5% (w/v) nonfat dry milk and 0.05% (v/v) Tween-20. The beads were washed in phosphate buffered saline containing 0.05% (v/v) Tween-20 (PBS-T) and 100 uls of unpurified cell culture supernatant containing transiently produced MMP-26-binding antibodies was added and incubated on a rotator for sixty minutes. The beads were washed with PBS-T and MMP-26-binding antibodies were detected with an HRP-conjugated anti-human secondary antibody. Data is expressed in fold over background where background consists of beads, blocking agent, and culture supernatant containing target antibody (Table 2; in this table, Results shown as fold over background (F>B) where background consists of beads, blocking agent, and culture supernatant).

T2 sequence (P14780 107-707 limits assumed): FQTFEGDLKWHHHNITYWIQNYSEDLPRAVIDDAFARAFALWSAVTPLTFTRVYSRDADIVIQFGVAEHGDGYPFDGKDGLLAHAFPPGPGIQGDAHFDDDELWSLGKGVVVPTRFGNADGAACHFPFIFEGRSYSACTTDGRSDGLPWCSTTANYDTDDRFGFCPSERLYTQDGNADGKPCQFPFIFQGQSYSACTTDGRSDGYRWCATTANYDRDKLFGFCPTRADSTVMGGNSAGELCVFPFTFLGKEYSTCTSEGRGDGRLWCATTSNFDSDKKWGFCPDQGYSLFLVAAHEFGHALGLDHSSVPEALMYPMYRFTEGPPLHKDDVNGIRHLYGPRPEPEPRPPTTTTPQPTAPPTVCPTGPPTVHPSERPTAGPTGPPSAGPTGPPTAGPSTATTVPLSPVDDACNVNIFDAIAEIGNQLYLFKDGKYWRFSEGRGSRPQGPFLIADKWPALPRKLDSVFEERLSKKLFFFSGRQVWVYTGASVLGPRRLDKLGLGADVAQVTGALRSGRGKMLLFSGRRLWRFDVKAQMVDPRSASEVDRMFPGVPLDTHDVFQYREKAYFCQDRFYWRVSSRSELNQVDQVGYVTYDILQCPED
T3 sequence (P08254 100-477 limits assumed): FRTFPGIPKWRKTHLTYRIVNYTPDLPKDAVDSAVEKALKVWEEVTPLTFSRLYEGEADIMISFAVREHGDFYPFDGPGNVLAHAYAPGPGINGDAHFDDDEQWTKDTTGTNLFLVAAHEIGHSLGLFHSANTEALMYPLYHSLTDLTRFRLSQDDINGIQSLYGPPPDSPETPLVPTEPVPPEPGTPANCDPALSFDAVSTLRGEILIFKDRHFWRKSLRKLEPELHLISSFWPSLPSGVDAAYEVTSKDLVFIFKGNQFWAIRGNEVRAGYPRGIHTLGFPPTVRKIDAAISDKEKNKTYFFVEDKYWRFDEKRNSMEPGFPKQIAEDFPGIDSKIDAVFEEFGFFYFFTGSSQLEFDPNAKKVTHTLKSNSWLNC

| binding result [1] | binding result [2] | F > B (fold over background) [3] [fold over background] | Binder |
| --- | --- | --- | --- |
| no binding (tested: 2 µg/ml) | no binding (tested: 2 µg/ml) | 1.84 | A10 (antibody, human IgG4, V domains shown, whole human IgG4) VH: EVQLLESGGGLVQPGGSLRLSCAASGFTFSAYRMFWVRQAPGKGLEWVSSIWPSGGTTSYADSVKGRFTISRDNSKNTLYLQMNSLRAEDTAVYYCARDRGYDSSGYFDYWGQGTLVTVSS VL: QSELTQPPSASGTPGQRVTISCSGGSSNIGSNYVSWYQQLPGTAPKLLIYNNNQRPSGVPDRFSGSKSGTSASLAISGLRSEDEADYYCAAWDDSLSSAVFGGGTQLTVLG |
|  | no binding (tested: 2 µg/ml) |  | A1-orig (antibody, human IgG4, V domains shown, whole human IgG4) VH: EVQLLESGGGLVQPGGSLRLSCAASGFTFSYYRMSWVRQAPGKGLEWVSSIGPSGGDTLYADSVKGRFTISRDNSKNTLYLQMNSLRAEDTAVYYCARSFSSGPYYFDYWGQGTLVTVSS VL: QSVLTQPPSASGTPGQRVIISCSGSSSNIGSHYVHWYQQVPGTAPKLLIYRNGQRPSGVPDRFSGFKSGTSASLAISGLRSEDEANYYCATWDDSVLFGGGTTLTVLG |
| no binding (tested: 2 µg/ml) |  | 2.7 | B10 (antibody, human IgG4, V domains shown, whole human IgG4) VH: EVQLLESGGGLVQPGGSLRLSCAASGFTFSSYAMMWVRQAPGKGLEWVSWIVPSGGTTFYADSVKGRFTISRDNSKNTLYLQMNSLRAEDTAVYYCARGLYRWGQGTLVTVSSASTKGPSVFP VL: DIQMTQSPSSLSASVGDRVTIACRTSQNVNRYLNWYQHKLGQAPKLLIYGATILQSGVPSRFRGSGSGTDFILTITNLQPEDFAVYYCQQTYSPPLTFGQGTKAEFKGTVAAPSV |
| no binding (tested: 2 µg/ml) | no binding (tested: 2 µg/ml) | 2.1 | B06 (antibody, human IgG4, V domains shown, whole human IgG4) VH: EVQLLESGGGLVQPGGSLRLSCAASGFTFSQYFMKWVRQAPGKGLEWVSSISPSGGLTQYADSVKGRFTISRDNSKNTLYLQMNSLRAEDTAVYYCARGGIEAPGSPSDYWGQGTLVTVSS VL: DIQMTQSPSFLSASVGDRVTITCRASQGISSYLAWYQQKPGKAPKLLIYAASTLQSGVPSRFSGSGSGTDFTLTISSLEPEDFATYYCQESYSTPFFTFGPGTKVDIRR |
| no binding (tested: 2 µg/ml) | no binding (tested: 2 µg/ml) | 1.8 | A12 (antibody, human IgG4, V domains shown, whole human IgG4) VH: EVQLLESGGGLVQPGGSLRLSCAASGFTFSAYWMDWVRQAPGKGLEWVSVIYPSGGSTNYADSVKGRFTISRDNSKNTLYLQMNSLRAEDTAVYYCAREGIAAAAPMDVWGKGTTVTVSS VL: DIQMTQSPGTLSLSPGERATLSCRASQSVSRSYLGWYQQKPGQAPRLLIYGASNRATGIPDRFSGSGSGTDFTLTISRLEPEDFAVYYCQQYGISPLTFGPGTKVDIKR |
| no binding (tested: 2 µg/ml) | no binding (tested: 2 µg/ml) |  | B07 (antibody, human IgG4, V domains shown, whole human IgG4) VH: EVQLLESGGGLVQPGGSLRLSCAASGFTFSQYQMIWVRQAPGKGLEWVSVIVPSGGITNYADSVKGRFTISRDNSKNTLYLQMNSLRAEDTAVYYCARGGVEAVDSSSPDYWGQGTLVTVSS VL: DIQMTQSPATLSLSPGERATLSCRASQSVSSYLAWYQQKPGQAPRLLIYDASNRATGIPARFSGSGSGTDFTLTISSLEPEDFAVYYCQQRSNWPRTFGGGTKVEIKR |
| no binding (tested: 2 µg/ml) | no binding (tested: 2 µg/ml) |  | H6-orig (antibody, human IgG4, V domains shown, whole human IgG4) VH: EVQLLESGGGLVQPGGSLRLSCAASGFTFSQYWMNWVRQAPGKGLEWVSGIGPSGGITYYADSVKGRFTISRDNSKNTLYLQMNSLRAEDTAVYYCARGEEDGYNSDYWGQGTLVTVSS VL: QSELTQPPSASGSPGQSVTISCTGTSSDVGAYNYVSWYQQHPGKAPKLIIYEVNKRPSGVPDRFSASKSGNTASLTVSGLQAEDEADYYCNSYAGSNSLIFGGGTKLTVLG |
| no binding (tested: 2 µg/ml) | no binding (tested: 2 µg/ml) | 2.3 | B01 (antibody, human IgG4, V domains shown, whole human IgG4) VH: EVQLLESGGGLVQPGGSLRLSCAASGFTFSTYDMLWVRQAPGKGLEWVSSISPSGGSTSYADSVKGRFTISRDNSKNTLYLQLNSLRAEDTAVYYCAREKASDLSGTYSEALDHWGQGTLVTVSS VL: DIQMTQSPGTLSLSPGERATLSCRASQSVSSSYFAWYQQKPGQAPRLLIYDASSRATGIPDRFSGSGSGTDFTLTISRLEPEDFAVYYCQQYGSSPPMYTFGQGTKLEIKR |
|  | no binding (tested: 2 µg/ml) |  | D6-orig (antibody, human IgG4, V domains shown, whole human IgG4) VH: EVQLLESGGGLVQPGGSLRLSCAASGFTFSMYSMRWVRQAPGKGLEWVSSIYPSGGSTEYADSVKGRFTISRDNSKNTLYLQMNSLRAEDTAVYYCAREGGENDYWGQGTLVTVSS VL: DIQMTQSPLSLSASVGDRVAITCRASQSIDTYLNWYQQKPGKAPKLLIYAASKLEDGVPSRFSGSGTGTDFTLTIRSLQPEDFASYFCQQSYSSPGITFGPGTKVEIKR |
| no binding (tested: 2 µg/ml) | no binding (tested: 2 µg/ml) |  | B02 (antibody, human IgG4, V domains shown, whole human IgG4) VH: EVQLLESGGGLVQPGGSLRLSCAASGFTFSDYFMKWVRQAPGKGLEWVSSIYPSGGPTKYADSVKGRFTISRDNSKNTLYLQMNSLRAEDTAVYYCARERSSGWYGYYYYGMDVWGQGTTVTVSS VL: DIQMTQSPSSLSASVGDRVAITCRASQSIDTYLNWYQQKPGKAPKLLIYAASKLEDGVPSRFSGSGTGTDFTLTIRSLQPEDFASYFCQQSYSSPGITFGPGTKVEIKR |
| no binding (tested: 2 µg/ml) | no binding (tested: 2 µg/ml) | 1.7 | A11 (antibody, human IgG4, V domains shown, whole human IgG4; the VHC entry has one unread residue (printed z, K75z)) VH: EVQLLESGGGLVQPGGSLRLSCAASGFTFSWYTMMWVRQAPGKGLEWVSRISPSGGHTLYADSVKGRFTISRDNSZNTLYLQMNSLRAEDTAVYYCARDTWDDYYDSSGYYNDFDYWGQGTLVTVSS VL: QSALTQPPSVSLAPGQTARITCGGNNIGTKSVHWYQQKPGQAPVLVVYDDSDRPSGIPERFSGSNSGNTATLTISRVEAGDEADYYCQVWDSGSDHQVFGGGTKLTVLG |
| no binding (tested: 2 µg/ml) | no binding (tested: 2 µg/ml) |  | B04 (antibody, human IgG4, V domains shown, whole human IgG4) VH: EVQLLESGGGLVQPGGSLRLSCAASGFTFSFYWMMWVRQAPGKGLEWVSGISSSGGFTKYADSVKGRFTISRDNSKNTLYLQMNSLRAEDTAVYYCARETSRRAFDIWGQGTMVTVSS VL: DIQMTQSPSSVSASVGDRVTITCRASQGISKSLAWYQQKPGKAPKLLVYGAFSLESGVPSRFSGTGAGTDFILTISRLQPEDFATYYCQQANSFPLTFGGGTKVEIKR |
| no binding (tested: 2 µg/ml) |  | 1.8 | C12 (antibody, V domains shown, whole human IgG4) VH: EVQLLESGGGLVQPGGSLRLSCAASGFTFSAYNMMWVRQAPGKGLEWVSRIYPSGGYTLYADSVKGRFTISRDNSKNTLYLQMNSLRAEDTAVYYCARQKLMIRAVRPFDYWGQGTLVTVSS VL: QSELTQPPSVSVSPAQTASITCSGDKLGDKYACWYQQKPGQSPVLVIYEDTKRPSGIPERFSGSNSGNTATLTISGTQVMDEADYYCQVWDSSTAVFGGGTKLTVLG |
